Laboratory results reported in patent US7494647 (Chugai, dated 2009).

B1: H chain humanized version i/L chain humanized version b antibody (antibody, IgG4, V domains shown)
VH: QVQLLESGAVLARPGTSVKISCKASGFNIKDYYMHWVKQRPGQGLEWIGGNDPANGHSMYDPKFQGRVTITADTSTSTAYMELRSLRSDDTAVYYCARDSGYAMDYWGQGTLVTVSS
VL: DIQMTQSPSSLSASVGDRVTITCKASQDIKSFLSWYQQKPGKAPKLLIYYATSLADGVPSRFSGSGSGTDYTLTISSLQPEDFATYYCLQHGESPYTFGGGTKVEIK
B2: H chain humanized version i/L chain humanized version b2 antibody (antibody, IgG4, V domains shown)
VH: QVQLLESGAVLARPGTSVKISCKASGFNIKDYYMHWVKQRPGQGLEWIGGNDPANGHSMYDPKFQGRVTITADTSTSTAYMELRSLRSDDTAVYYCARDSGYAMDYWGQGTLVTVSS
VL: DIQMTQSPSSLSASVGDRVTITCKASQDIKSFLSWYQQKPEKAPKSLIYYATSLADGVPSRFSGSGSGTDYTLTISSLQPEDFATYYCLQHGESPYTFGGGTKVEIK
notes: also called i-b2; ib2
B3: H chain humanized version b/L chain humanized version a antibody (antibody, IgG4, V domains shown)
VH: QVQLLESGAVLARPGTSVKISCKASGFNIKDYYMHWVKQRPGQGLEWIGGNDPANGHSMYDPKFQGRVTITADTSTNTAYMELSSLRSEDTAIYYCARDSGYAMDYWGQGTLVTVSS
VL: DIQMTQSPSSLSASVGDRVTITCKASQDIKSFLSWYQQKPGKAPKLLIYYATSLADGVPSRFSGSGSGTDFTLTISSLQPEDFATYYCLQHGESPYTFGGGTKVEIK
notes: also called b-a
B4: H chain humanized version d/L chain humanized version b antibody (antibody, IgG4, V domains shown)
VH: QVQLLESGAVLARPGTSVKISCKASGFNIKDYYMHWVKQRPGQGLEWIGGNDPANGHSMYDPKFQGRVTITADESTSTAYMELSSLRSEDSAVYFCARDSGYAMDYWGQGTLVTVSS
VL: DIQMTQSPSSLSASVGDRVTITCKASQDIKSFLSWYQQKPGKAPKLLIYYATSLADGVPSRFSGSGSGTDYTLTISSLQPEDFATYYCLQHGESPYTFGGGTKVEIK
notes: also called d-b
B5: H chain humanized version g/L chain humanized version b antibody (antibody, IgG4, V domains shown)
VH: QVQLLESGAVLARPGTSVKISCKASGFNIKDYYMHWVKQRPGQGLEWIGGNDPANGHSMYDPKFQGKATLTADESSSTAYMQLSSLRSEDSAVYSCARDSGYAMDYWGQGTLVTVSS
VL: DIQMTQSPSSLSASVGDRVTITCKASQDIKSFLSWYQQKPGKAPKLLIYYATSLADGVPSRFSGSGSGTDYTLTISSLQPEDFATYYCLQHGESPYTFGGGTKVEIK
notes: also called g-b
B6: H chain humanized version i/L chain humanized version b1 antibody (antibody, IgG4, V domains shown)
VH: QVQLLESGAVLARPGTSVKISCKASGFNIKDYYMHWVKQRPGQGLEWIGGNDPANGHSMYDPKFQGRVTITADTSTSTAYMELRSLRSDDTAVYYCARDSGYAMDYWGQGTLVTVSS
VL: DIQMTQSPSSLSASVGDRVTITCKASQDIKSFLSWFQQKPGKSPKTLIYYATSLADGVPSRFSGSGSGTDYTLTISSLQPEDFATYYCLQHGESPYTFGGGTKVEIK
notes: also called i-b1
B7: H chain humanized version j/L chain humanized version b antibody (antibody, IgG4, V domains shown)
VH: QVQLLESGAVLARPGTSVKISCKASGFNIKDYYMHWVKQRPGQGLEWIGGNDPANGHSMYDPKFQGRVTFTADTSANTAYMELRSLRSADTAVYYCARDSGYAMDYWGQGTLVTVSS
VL: DIQMTQSPSSLSASVGDRVTITCKASQDIKSFLSWYQQKPGKAPKLLIYYATSLADGVPSRFSGSGSGTDYTLTISSLQPEDFATYYCLQHGESPYTFGGGTKVEIK
notes: also called j-b
B8: H chain humanized version i/L chain chimeric antibody (antibody, IgG4, V domains shown)
VH: QVQLLESGAVLARPGTSVKISCKASGFNIKDYYMHWVKQRPGQGLEWIGGNDPANGHSMYDPKFQGRVTITADTSTSTAYMELRSLRSDDTAVYYCARDSGYAMDYWGQGTLVTVSS
VL: DIKMTQSPSSMYASLGERVTITCKASQDIKSFLSWYQQKPWKSPKTLIYYATSLADGVPSRFSGSGSGQDYSLTINNLESDDTATYYCLQHGESPYTFGGGTKLEIK
notes: L chain V region is that of mouse ATR-5; also called i-ch

target: TF/Factor VIIa complex (human, UniProt P13726 33-295; P08709 61-466); experiment: cell-based or functional assay
Sequence (P13726 33-295 limits assumed, chain 1 of 2): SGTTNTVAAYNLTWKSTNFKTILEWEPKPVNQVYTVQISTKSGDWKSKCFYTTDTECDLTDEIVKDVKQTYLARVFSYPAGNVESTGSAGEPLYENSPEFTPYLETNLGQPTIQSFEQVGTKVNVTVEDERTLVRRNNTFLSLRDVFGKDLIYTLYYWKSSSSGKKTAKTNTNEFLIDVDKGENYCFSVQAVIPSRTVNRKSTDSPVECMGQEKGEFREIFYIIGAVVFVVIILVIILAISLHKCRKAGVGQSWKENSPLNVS
Sequence (P08709 61-466 limits assumed, chain 2 of 2): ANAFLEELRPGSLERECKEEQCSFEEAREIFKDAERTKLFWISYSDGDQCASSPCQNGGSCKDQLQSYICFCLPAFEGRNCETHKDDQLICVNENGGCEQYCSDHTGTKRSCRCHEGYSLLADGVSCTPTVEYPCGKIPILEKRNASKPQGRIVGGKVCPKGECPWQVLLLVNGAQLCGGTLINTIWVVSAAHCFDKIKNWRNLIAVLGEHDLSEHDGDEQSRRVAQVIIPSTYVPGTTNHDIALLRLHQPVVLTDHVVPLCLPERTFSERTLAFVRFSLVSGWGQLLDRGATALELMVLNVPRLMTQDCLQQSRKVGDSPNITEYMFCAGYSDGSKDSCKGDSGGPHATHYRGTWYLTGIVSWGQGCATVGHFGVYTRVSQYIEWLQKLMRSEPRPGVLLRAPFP

Binder	IC50 (read off the curve) [µg/mL]
B1	~0.1
B2	~0.06

target: T1, soluble human TF (human TF 1-219 with the FLAG peptide linked to the C-terminal) (human, UniProt P13726 33-251); experiment: BIACORE; antibody captured on Protein G chip, soluble TF as analyte; mean ± SD, n = 3
T1 construct: Entry is the whole soluble construct (TF 1-219 followed by FLAG peptide M2); also called soluble TF; shTF
Method: Kinetic analysis of the antigen-antibody reaction was carried out using BIACORE. The recombinant Protein G was immobilized on a sensor chip, to which the antibody was coupled. The purified recombinant TF (a soluble TF in which the FLAG peptide was tagged at 1-219) was used as the antigen, and the-soluble TF prepared at various concentrations were used as analytes. From the sensorgram obtained, kinetic parameters (dissociation rate constants kdiss, and binding rate constants kass) were calculated.
As the running buffer, the HBS-EP buffer was used. Ten μl Of […] antibody solution was injected at a flow rate of 20 μl/min to immobilize antibody. The antibody was diluted with the HBS-EP buffer. Forty μl Of the soluble human TF solution at various concentrations were injected at a flow rate of 30 μl/min thereto. In the analysis, 80 seconds for injection was set as the binding phase and then changed to the HBS-EP buffer to set the dissociation phase of 120 seconds. After the dissociation phase was over, 10 μl of 20 mM hydrochloric acid was injected to reconstitute the sensor chip. The binding, dissociation, and reconstitution were set as one cycle, and the sensorgram was obtained for each antibody. The soluble human TF solution was prepared at concentrations of 250 nM, 125 nM, 62.5 nM, 31.3 nM, 15.6 nM, 7.81 nM, and 3.91 nM using the HBS-EP buffer. As the blank, the sensorgram obtained by injecting the HBS-EP buffer used for dilution was used.
The data file of interest was read in, and the comparison of reaction patterns by superscription was made using as the baseline the sensorgram of the HBS-EP buffer. Furthermore, using an analytical application software "BIAevaluation 2.1" (Pharmacia) exclusively for BIACORE that calculates kinetic parameters (binding rate constants kass and dissociation rate constants kdiss) by curve-fitting, kinetic analysis of interaction was performed. In order to determine the binding rate constants kass, the analysis model type 4 was used (BIAevaluation 2.1 Software Hand book, A1-A5). Based on the values calculated from each flow cell, kinetic parameters for each antibody were obtained.

T1 sequence (P13726 other isoform, or with tags, fused parts or gaps limits assumed): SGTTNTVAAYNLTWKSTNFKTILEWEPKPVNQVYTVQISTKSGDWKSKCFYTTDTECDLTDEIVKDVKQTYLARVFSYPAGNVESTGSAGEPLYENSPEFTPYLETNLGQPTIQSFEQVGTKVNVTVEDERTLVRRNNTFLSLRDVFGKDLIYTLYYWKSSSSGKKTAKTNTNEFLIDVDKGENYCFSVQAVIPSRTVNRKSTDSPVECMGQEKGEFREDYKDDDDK

Binder	Kd [nM]	koff [s⁻¹]	kon [M⁻¹ s⁻¹]
B1	1.39	0.000649	467000
B2	1.17	0.000635	544000

target: T2, human tissue factor (TF) on human bladder carcinoma cells J82 (human, UniProt P13726 33-295); experiment: cell ELISA on paraformaldehyde-fixed J82 cells; AP-conjugated goat anti-human IgGγ; absorbance 405/655 nm
T2 construct: whole, on cells; also called the antigen; J82 cells
Method: Cell ELISA plates for measurement of antigen binding were prepared as follows. Cells used were human bladder carcinoma cells J82 (ATCC HTB-1). To 60 wells of a 96-well cell culture plate, 1 ×10^5 J82 cells were inoculated. This was cultured (RPMI1640 medium containing 10% fetal bovine serum (GIBCO)) for one day in a CO_2 incubator to allow the cells to be attached thereto. After discarding the culture liquid, each well was washed twice with 300 μl PBS. 100 μl of PBS containing 4% paraformaldehyde (hereinafter referred to as PFA/PBS) was added to each well, and placed on ice for 10 minutes to immobilize the cells.
PFA/PBS was discarded, and each well was washed twice with 300 μl of PBS, and then blocked with 250 μl of DB. The culture supernatant or purified antibody was serially diluted with DB, 100 μl of which was added to each well. After incubating at room temperature for 2 hours followed by washing with RB, 100 μl of alkaline phosphatase-conjugated goat anti-human IgGγ antibody (BioSource) diluted 1000-fold with DB was added. After incubating for 1 hour followed by washing with RB, the substrate solution was added, and then absorbance at 405/655 nm was measured using the Microplate Reader (Bio-Rad).

T2 sequence (P13726 33-295): as the sequence (P13726 33-295 limits assumed, chain 1 of 2) above

Binder	EC50 (read off the curve) [µg/mL]	binding result
B3	~0.1	–
B4	–	binds
B5	~0.04	–
B6	–	binds
B7	–	binds
B8	–	binds
